B1: H1H20642D (bispecific antibody, V domains shown)
VH 1: QLQLQESGPGLVKPSETLSLTCTVSGGSISSSSYYWVWIRQPPGKGLEWIGNIYFSGSTYYNPSLKSRVTITVDTSKNQFSLKMTSVTAADTAVYYCARPFYGSRGDYYYGMDVWGQGTTVTVSS
VH 2: EVQLVESGGGLVQPGGSLRLSCAASGFTFSNYEMNWVRQAPGKGLDWVSYISTSGSVIYYADSVKGRFTISRDNAKNSLYLEMNSLRAEDTAVYYCARGYDFWSGSDYYYGMDVWGQGTTVTVSS
VL: not shown
notes: also called anti-IsdB x anti-C1q bispecific antibody
B2: H1H20631D (bispecific antibody, V domains shown)
VH 1: EVQLVESGGGLVQPGRSLRLSCTTSGFTFDDYAMHWVRQVPGQGLEWVAGLSWNSDTIGYADSVKGRFTISRDNAKNSLYLQMKSLKAEDTALYYCTKDFYHSLNNWNYYYFDYWGQGTLVTVSS
VH 2: EVQLVESGGGVVQPGGSLRLSCAASGFSLDDYAMHWVRQTPGKGLEWVSLISGDGSRTSYADSVKGRFTISRDNSKNSLYLKMNSLRTEDTALYYCTKDPHNSNWFDPWGQGTLVTVSS
VL: not shown
notes: H1H = human IgG1 Fc; also called anti-IsdB x anti-C1q bispecific antibody
B3: H1H20635D (bispecific antibody, V domains shown)
VH 1: B2 VH 1
VH 2: EVQLVQSGAEVKKPGESLKIFCKGSGYSFINDWIGWVRQMPGKGLEWMGLIFPGDSDTRYSPVFQGHVTISADQSIDTAYLQWNSLKASDTAIYYCAVLRYWHFAIWGRGTLVTVSS
VL: not shown
notes: as for B1
B4: H1H20632D (bispecific antibody, V domains shown)
VH 1: B2 VH 1
VH 2: QVQLVESGGGVVQPGRSLRLSCAASGFTFSSYGMHWVRQAPGKGLEWVAVIWYDGSNKNYADSVKGRFTISRDSSKNTLYLQMNSLRAEDTAVYYCARENSEGYYYGMDVWGQGTTVTVSS
VL: not shown
notes: as for B1
B5: H1H20633D (bispecific antibody, V domains shown)
VH 1: B2 VH 1
VH 2: EVQLVQSGAEVKKPGESLKISCKASGYNFNSYWIGWVRQMPGKGLEWMGIVFPGDSDTRYSPSFQGQVTISADESINTAYLQWSSLKASDTAVYYCARHTRWYLDYWGQGTLVTVSS
VL: not shown
notes: as for B1

molecular target: T1, native human complement component C1q protein purified from human serum (Quidel) (human, UniProt P02745 23-245; P02746 28-253; P02747 29-245); assay: cell-based or functional assay
T1 sequence (P02745 23-245 limits assumed, chain 1 of 3): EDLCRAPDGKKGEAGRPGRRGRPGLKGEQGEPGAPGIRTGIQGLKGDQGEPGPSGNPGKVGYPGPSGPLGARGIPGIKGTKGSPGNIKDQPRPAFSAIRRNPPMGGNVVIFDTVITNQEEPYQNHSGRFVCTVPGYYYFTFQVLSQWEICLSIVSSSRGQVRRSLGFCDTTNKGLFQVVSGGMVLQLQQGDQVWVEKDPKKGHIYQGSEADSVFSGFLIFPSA
T1 sequence (P02746 28-253 limits assumed, chain 2 of 3): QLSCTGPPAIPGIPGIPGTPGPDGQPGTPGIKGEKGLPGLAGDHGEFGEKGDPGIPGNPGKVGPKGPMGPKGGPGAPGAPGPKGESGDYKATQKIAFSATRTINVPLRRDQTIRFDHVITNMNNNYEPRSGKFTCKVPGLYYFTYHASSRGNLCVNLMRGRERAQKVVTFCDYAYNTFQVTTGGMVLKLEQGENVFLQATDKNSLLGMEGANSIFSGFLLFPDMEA
T1 sequence (P02747 29-245 limits assumed, chain 3 of 3): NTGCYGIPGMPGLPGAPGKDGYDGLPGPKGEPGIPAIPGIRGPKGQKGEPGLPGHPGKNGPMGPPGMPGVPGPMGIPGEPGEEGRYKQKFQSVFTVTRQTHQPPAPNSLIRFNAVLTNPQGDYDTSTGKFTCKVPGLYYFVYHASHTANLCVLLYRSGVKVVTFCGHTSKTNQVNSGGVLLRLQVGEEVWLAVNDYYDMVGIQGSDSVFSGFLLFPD

Binder	Classical Pathway hemolysis assay % inhibition	Classical Pathway hemolysis assay IC50
B1	99%	0.106 nM
B2	100%	2.67 nM
B3	97%	8.88 nM
B4	100%	1.78 nM
B5	100%	1.42 nM

molecular target: T1, native human complement component C1q …; assay: cell-based or functional assay; remark: another data set of the same source

Binder	inhibition of CDC of Daudi cells, IC50 [M]	inhibition of CDC of Daudi cells, Max % Inhibition
B1	1e-08 M	≥ 99%
B2	> 1e-07 M	94%
B3	2.8e-08 M	≥ 99%
B4	2.3e-07 M	≥ 99%
B5	1.7e-08 M	≥ 99%

molecular target: T1, native human complement component C1q …; assay: cell-based or functional assay; remark: another data set of the same source

Binder	C1q deposition on S. aureus Cowan I EC50
B1	0.00586 nM
B2	0.297 nM
B3	0.425 nM
B4	0.529 nM
B5	0.203 nM

molecular target: T2, IsdB expressed on the surface of S. aureus Wood 46 (Staphylococcus aureus); assay: ELISA on plate-coated S. aureus Wood 46
T2 construct: whole, on cells
T2 sequence (Q2FZF0 41-613): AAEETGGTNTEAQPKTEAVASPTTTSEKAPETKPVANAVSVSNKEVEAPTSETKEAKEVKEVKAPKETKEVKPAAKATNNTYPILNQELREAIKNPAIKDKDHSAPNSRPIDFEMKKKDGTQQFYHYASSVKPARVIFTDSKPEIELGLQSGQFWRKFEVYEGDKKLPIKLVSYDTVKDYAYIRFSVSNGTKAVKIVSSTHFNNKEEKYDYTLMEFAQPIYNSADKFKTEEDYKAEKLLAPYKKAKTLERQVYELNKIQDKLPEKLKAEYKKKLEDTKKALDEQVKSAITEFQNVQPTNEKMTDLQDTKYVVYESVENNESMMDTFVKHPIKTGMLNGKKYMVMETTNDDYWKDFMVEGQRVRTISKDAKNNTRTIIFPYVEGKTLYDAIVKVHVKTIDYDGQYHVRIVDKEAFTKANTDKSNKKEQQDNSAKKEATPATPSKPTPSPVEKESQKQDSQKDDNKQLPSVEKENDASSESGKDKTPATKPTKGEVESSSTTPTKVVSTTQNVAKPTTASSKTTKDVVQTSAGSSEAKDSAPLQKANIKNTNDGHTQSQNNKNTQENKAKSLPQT
Method: Briefly, S. aureus Wood 46 was grown in RPMI overnight, washed in PBS and adjusted to an OD₆₀₀ of 0.25. MaxiSorp 96 well microtiter plates were coated overnight with 100 μl of S. aureus culture per well. Plates were washed and blocked with 3% BSA. […] Anti-human HRP conjugated secondary antibody was added to washed plates. Luminescence reagents (SuperSignal Pico) were then added to the wells and signal was detected in a plate reader (Victor X3 plate reader, Perkin Elmer) immediately. Luminescence values were analyzed by a four-parameter logistic equation over a 7-point response curve (GraphPad Prism) to determine the binding EC₅₀, of the antibodies.

Binder	EC50
B1	8.57 nM
B2	1.26 nM
B3	1.96 nM
B4	1.08 nM
B5	1.31 nM

molecular target: T1, native human complement component C1q …; assay: SPR Biacore, captured Ab, hC1q analyte, 25C

Binder	Kd	koff	kon	t½
B1	0.0114 nM	0.000196 s⁻¹	1.72e+07 M⁻¹ s⁻¹	58.9 min
B2	–	–	–	7.01 min
B3	–	0.00452 s⁻¹	1.46e+07 M⁻¹ s⁻¹	2.56 min
B4	0.294 nM	0.00318 s⁻¹	1.08e+07 M⁻¹ s⁻¹	3.64 min
B5	0.271 nM	0.00348 s⁻¹	1.28e+07 M⁻¹ s⁻¹	3.32 min

molecular target: T1, native human complement component C1q …; assay: SPR Biacore, captured Ab, hC1q analyte, 37C

Binder	Kd	koff	kon	t1/2
B1	0.0501 nM	0.000412 s⁻¹	8.23e+06 M⁻¹ s⁻¹	28 min
B2	–	–	–	5.19 min
B3	–	0.0174 s⁻¹	2.41e+07 M⁻¹ s⁻¹	0.66 min
B4	0.175 nM	0.00871 s⁻¹	4.99e+07 M⁻¹ s⁻¹	1.33 min
B5	0.487 nM	0.0127 s⁻¹	2.61e+07 M⁻¹ s⁻¹	0.91 min

molecular target: T3, Recombinant bacterial IsdB expressed with a hexahistidine tag (IsdB-6xHis; REGN2655) (Staphylococcus aureus, UniProt A6QG30 42-613); assay: SPR Biacore, captured Ab, IsdB-6xHis analyte, 25C
T3 sequence (A6QG30 42-613, tags left off): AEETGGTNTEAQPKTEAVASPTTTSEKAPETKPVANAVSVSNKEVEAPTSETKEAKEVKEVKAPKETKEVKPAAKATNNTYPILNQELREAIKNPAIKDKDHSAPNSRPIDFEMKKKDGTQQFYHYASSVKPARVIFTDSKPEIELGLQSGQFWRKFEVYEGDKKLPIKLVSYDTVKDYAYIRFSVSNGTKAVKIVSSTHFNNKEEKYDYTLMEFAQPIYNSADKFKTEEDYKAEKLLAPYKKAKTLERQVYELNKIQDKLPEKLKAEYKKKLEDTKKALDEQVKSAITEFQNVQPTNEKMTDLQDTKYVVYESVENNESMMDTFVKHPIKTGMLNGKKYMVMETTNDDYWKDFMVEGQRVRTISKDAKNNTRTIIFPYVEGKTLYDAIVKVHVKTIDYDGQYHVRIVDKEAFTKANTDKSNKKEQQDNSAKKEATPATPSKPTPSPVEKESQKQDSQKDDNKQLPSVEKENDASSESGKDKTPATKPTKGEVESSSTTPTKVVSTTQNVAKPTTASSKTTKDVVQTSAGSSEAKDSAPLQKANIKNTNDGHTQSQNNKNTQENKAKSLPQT

Binder	Kd	koff	kon	t½
B1	8.26 nM	0.000501 s⁻¹	60700 M⁻¹ s⁻¹	23 min
B2	2.36 nM	–	–	42.8 min
B3	1.7 nM	0.000204 s⁻¹	120000 M⁻¹ s⁻¹	56.6 min
B4	2.21 nM	0.000255 s⁻¹	115000 M⁻¹ s⁻¹	45.2 min
B5	2.04 nM	0.000247 s⁻¹	121000 M⁻¹ s⁻¹	46.9 min

molecular target: T3, Recombinant bacterial IsdB expressed …; assay: SPR Biacore, captured Ab, IsdB-6xHis analyte, 37C

Binder	Kd	koff	kon	t1/2
B1	16.7 nM	0.00141 s⁻¹	84600 M⁻¹ s⁻¹	8.19 min
B2	3.43 nM	–	–	20.7 min
B3	3.33 nM	0.00052 s⁻¹	156000 M⁻¹ s⁻¹	22.2 min
B4	3.41 nM	0.000527 s⁻¹	154000 M⁻¹ s⁻¹	21.9 min
B5	3.41 nM	0.00054 s⁻¹	159000 M⁻¹ s⁻¹	21.4 min

molecular target: T1, native human complement component C1q …; assay: competition ELISA, 6 nM biot-hC1q, competitor plate-coated hIgM

Binder	% Blockade with 600 nM bispecific Ab	IC50
B1	72%	3.9 nM
B3	93%	12 nM
B4	97%	18 nM
B5	96%	6.4 nM

molecular target: T1, native human complement component C1q …; assay: competition ELISA, 6 nM biot-hC1q, competitor plate-coated hIgG2-k

Binder	% Blockade with 600 nM bispecific Ab	IC50
B1	80%	5 nM
B3	84%	16 nM
B4	88%	23 nM
B5	79%	8.2 nM

molecular target: T1, native human complement component C1q …; assay: competition ELISA, 30 pM biot-hC1q, competitor plate-coated hIgG1-k

Binder	% Blockade with 30 nM bispecific Ab	IC50
B1	71%	0.11 nM
B3	87%	–
B4	90%	–
B5	93%	1.6 nM

molecular target: T1, native human complement component C1q …; assay: competition ELISA, 30 pM biot-hC1q, competitor plate-coated hIgG3-k

Binder	% Blockade with 30 nM bispecific Ab	IC50
B1	96%	0.37 nM
B3	53%	–
B4	86%	83 nM
B5	84%	4.8 nM

molecular target: T1, native human complement component C1q …; assay: SPR Biacore, captured Ab, hC1q analyte, 25C; 25 C; hC1q binding to the C1q arm of the bispecific antibody

Binder	Kd
B2	0.228 nM
B3	0.309 nM

molecular target: T1, native human complement component C1q …; assay: SPR Biacore, captured Ab, hC1q analyte, 37C; 37 C; hC1q binding to the C1q arm of the bispecific antibody

Binder	Kd
B2	0.193 nM
B3	0.723 nM
